This note sets out measurements from doi:10.1101/2023.02.03.526966.

In the experiment the target is recombinant mouse nidogen-2 (ELISA) (mouse) (UniProt O88322). The experiment can be described thus: ELISA.
Chain of UniProt O88322 (O88322 31-1403): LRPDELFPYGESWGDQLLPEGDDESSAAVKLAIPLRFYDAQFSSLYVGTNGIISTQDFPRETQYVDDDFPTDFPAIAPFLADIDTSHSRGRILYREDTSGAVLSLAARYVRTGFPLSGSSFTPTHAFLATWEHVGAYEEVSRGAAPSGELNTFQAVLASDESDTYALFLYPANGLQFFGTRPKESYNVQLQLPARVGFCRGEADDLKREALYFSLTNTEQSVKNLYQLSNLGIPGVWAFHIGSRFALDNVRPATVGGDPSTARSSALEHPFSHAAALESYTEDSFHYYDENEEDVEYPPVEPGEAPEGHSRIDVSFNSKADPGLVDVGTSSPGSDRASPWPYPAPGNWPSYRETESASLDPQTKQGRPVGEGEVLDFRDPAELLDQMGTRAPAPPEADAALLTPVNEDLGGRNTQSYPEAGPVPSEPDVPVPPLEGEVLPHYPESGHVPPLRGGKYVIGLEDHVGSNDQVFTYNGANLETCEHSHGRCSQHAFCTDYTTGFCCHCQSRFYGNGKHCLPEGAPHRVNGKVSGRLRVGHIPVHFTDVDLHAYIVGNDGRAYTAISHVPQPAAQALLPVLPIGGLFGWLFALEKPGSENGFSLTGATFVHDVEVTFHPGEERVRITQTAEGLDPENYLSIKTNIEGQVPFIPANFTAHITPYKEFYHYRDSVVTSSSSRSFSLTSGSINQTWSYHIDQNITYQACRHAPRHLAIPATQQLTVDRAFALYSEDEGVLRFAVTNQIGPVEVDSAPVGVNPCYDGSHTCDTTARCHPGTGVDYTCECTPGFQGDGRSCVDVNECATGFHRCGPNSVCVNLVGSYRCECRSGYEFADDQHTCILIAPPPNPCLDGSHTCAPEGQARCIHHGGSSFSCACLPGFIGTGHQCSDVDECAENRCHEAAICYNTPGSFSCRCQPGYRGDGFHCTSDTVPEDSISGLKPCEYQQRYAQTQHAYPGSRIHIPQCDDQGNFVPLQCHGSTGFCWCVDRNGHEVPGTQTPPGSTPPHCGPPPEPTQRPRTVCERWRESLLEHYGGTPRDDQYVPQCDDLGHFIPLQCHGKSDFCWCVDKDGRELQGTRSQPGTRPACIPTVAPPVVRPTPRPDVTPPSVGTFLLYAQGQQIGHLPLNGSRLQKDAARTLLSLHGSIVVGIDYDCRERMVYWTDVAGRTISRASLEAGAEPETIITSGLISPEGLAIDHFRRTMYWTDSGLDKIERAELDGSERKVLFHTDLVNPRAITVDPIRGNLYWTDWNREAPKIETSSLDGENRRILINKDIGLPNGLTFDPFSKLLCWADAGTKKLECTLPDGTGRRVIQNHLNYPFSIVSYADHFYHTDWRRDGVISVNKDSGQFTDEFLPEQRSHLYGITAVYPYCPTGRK
Turning to “LAR FNIII4-FLAG (purified soluble 4th FNIII domain of LAR) (domain or fragment)”, the Kd is 1900 nM.
In the case of “LAR FNIII5-FLAG (purified soluble 5th FNIII domain of LAR) (domain or fragment)”, the Kd is 1400 nM.
With “LAR FNIII7-FLAG (purified soluble 7th FNIII domain of LAR) (domain or fragment)” the figure was 2500 nM.
“LAR FNIII2-FLAG (purified soluble 2nd FNIII domain of LAR) (domain or fragment)”: the Kd was 2000 nM.
